Data set [1] deals with T1, human mtSSB (Homo sapiens) (UniProt Q04837).
T1 sequence: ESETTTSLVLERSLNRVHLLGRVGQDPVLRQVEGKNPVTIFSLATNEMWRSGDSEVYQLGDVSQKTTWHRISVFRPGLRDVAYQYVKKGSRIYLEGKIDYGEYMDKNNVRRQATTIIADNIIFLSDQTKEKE
Description: AFM. The conditions noted are these: Anisotropy: 30 mM HEPES-KOH pH 7.5, 1 mM 2-mercaptoethanol, 5 mM MgCl2, 0.01% NP-40, 50 mM NaCl, 20 nM oligo, 20 C. AFM/DREEM: incubation in 20 mM HEPES pH ….

Data set [2] concerns the molecule itself. The data set is described as follows: AFM volume measurement; free mtSSB (8.4 nM tetramers) diluted in 20 mM HEPES (pH 7.5), 100 mM NaCl, deposited on freshly cleaved mica, imaged in air (AC mode); AFM volume converted to molecular weight with a calibration curve.
In data set [3] the target is T2, human mtSSB (Homo sapiens, UniProt Q04837 17-148).
T2 sequence: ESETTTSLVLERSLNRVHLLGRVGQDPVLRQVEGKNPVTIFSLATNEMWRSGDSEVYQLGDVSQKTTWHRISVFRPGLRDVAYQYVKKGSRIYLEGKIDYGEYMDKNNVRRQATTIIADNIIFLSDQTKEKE
The data set is described as follows: fluorescence anisotropy; 5 mM MgCl2, 50 mM NaCl; tetramers; Anisotropy: 30 mM HEPES-KOH pH 7.5, 1 mM 2-mercaptoethanol, 5 mM MgCl2, 0.01% NP-40, 50 mM NaCl, 20 nM oligo, 20 C. AFM/DREEM: incubation in 20 mM HEPES pH 7.5. For orientation: In fluorescence polarisation assays a small probe gives low polarisation when free and higher when bound to something large.

Data set [4] deals with T2, human mtSSB. Description: fluorescence anisotropy; 5 mM MgCl2, 50 mM NaCl; Anisotropy: 30 mM HEPES-KOH pH 7.5, 1 mM 2-mercaptoethanol, 5 mM MgCl2, 0.01% NP-40, 50 mM NaCl, 20 nM oligo, 20 C. AFM/DREEM: incubation in 20 mM HEPES pH 7.5.
For data set [5], the target named is T3, E. coli SSB (Escherichia coli, UniProt P0AGE0 1-178). Description: fluorescence anisotropy; 5 mM MgCl2, 50 mM NaCl; tetramers; Hill coefficient 1.84; Anisotropy: 30 mM HEPES-KOH pH 7.5, 1 mM 2-mercaptoethanol, 5 mM MgCl2, 0.01% NP-40, 50 mM NaCl, 20 nM oligo, 20 C. AFM/DREEM: incubation in 20 mM HEPES pH 7.5.
T3 sequence (P0AGE0 whole entry): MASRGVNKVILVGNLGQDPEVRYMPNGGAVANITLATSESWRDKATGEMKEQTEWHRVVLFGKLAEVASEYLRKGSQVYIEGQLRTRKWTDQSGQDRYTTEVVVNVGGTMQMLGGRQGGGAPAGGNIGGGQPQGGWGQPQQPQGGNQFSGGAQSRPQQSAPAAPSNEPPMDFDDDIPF
Data set [6] concerns the target T2, human mtSSB. Description: fluorescence anisotropy; 5 mM MgCl2, 50 mM NaCl; tetramers; Hill coefficient 2.00; Anisotropy: 30 mM HEPES-KOH pH 7.5, 1 mM 2-mercaptoethanol, 5 mM MgCl2, 0.01% NP-40, 50 mM NaCl, 20 nM oligo, 20 C. AFM/DREEM: incubation in 20 mM HEPES pH 7.5.
Data set [7] concerns the target T3, E. coli SSB. The data set is described as follows: AFM/DREEM; 100 mM NaCl; 10 mM Mg(OAc)2 in imaging buffer; 35% one strand wrapped, 65% two; Anisotropy: 30 mM HEPES-KOH pH 7.5, 1 mM 2-mercaptoethanol, 5 mM MgCl2, 0.01% NP-40, 50 mM NaCl, 20 nM oligo, 20 C. AFM/DREEM: incubation in 20 mM HEPES pH 7.5.
Data set [8] deals with T2, human mtSSB. The data set is described as follows: AFM/DREEM; 100 mM NaCl; 10 mM Mg(OAc)2 in imaging buffer; 85% one strand wrapped, 15% two; Anisotropy: 30 mM HEPES-KOH pH 7.5, 1 mM 2-mercaptoethanol, 5 mM MgCl2, 0.01% NP-40, 50 mM NaCl, 20 nM oligo, 20 C. AFM/DREEM: incubation in 20 mM HEPES pH 7.5.

We go through six molecules from paper PMC6265486 (Nucleic Acids Research, 2018).

linear 2030-bp DNA with 37-nt ssDNA gap: in data set [1], the binding signal (KSP/KNSP (gap vs duplex specificity)) stood at 14500.

B1: human mitochondrial single-stranded DNA binding protein (natural protein, UniProt Q04837 17-148, looked up)
chain: ESETTTSLVLERSLNRVHLLGRVGQDPVLRQVEGKNPVTIFSLATNEMWRSGDSEVYQLGDVSQKTTWHRISVFRPGLRDVAYQYVKKGSRIYLEGKIDYGEYMDKNNVRRQATTIIADNIIFLSDQTKEKE
Turning to B1, the “stoichiometry N” value in data set [2] was determined as 4.
ATGCTAGCTTGGCTGTGACTTTAAACCTGTCGTGCCAGCT (ssDNA, fluorescein on internal T21) [D1-F 40-nt ssDNA]: binding with human mtSSB [3] was put at a Kd of 1.8 ± 0.9 nM.

B2: D1-F/D2 40-bp dsDNA (dsDNA)
DNA 1: ATGCTAGCTTGGCTGTGACTTTAAACCTGTCGTGCCAGCT
DNA 2: AGCTGGCACGACAGGTTTAAAGTCACAGCCAAGCTAGCAT
modifications: fluorescein on internal T21 of D1
Regarding B2, in the data set with human mtSSB [4], the binding result was “no binding”.

B3: 5'-fluorescein 90-nt oligonucleotide (ssDNA)
DNA: TAATGCTATCACTATTCGTAGACTTGACCACACCTTGTCAGCTCACGCTCCAAATGAAAGTATAGCTAAACAGGTTATTGACCATATGCA
modifications: fluorescein on 5'-terminal T
Regarding B3, the Kd in the data set with E. coli SSB [5] stood at 25.4 ± 1.3 nM; in the data set with human mtSSB [6] it was 14.7 ± 0.5 nM.

B4: 90-nt oligonucleotide (ssDNA)
DNA: TAATGCTATCACTATTCGTAGACTTGACCACACCTTGTCAGCTCACGCTCCAAATGAAAGTATAGCTAAACAGGTTATTGACCATATGCA
As for B4, the binding result with E. coli SSB [7] and with human mtSSB [8] was “binds” in each case.

What is called stoichiometry N is a count of units in the complex or per binding partner. A word on the Kd: it is a measure of binding affinity in units of concentration. The low end stands for tighter binding, the high end for weaker binding.
